According to publication PMC7386247:

Experiments:
PARP2 (Homo sapiens) = test: fluorescence polarization; details: not stated in the material (methods in supplement)
PARP1 (Homo sapiens) = test: fluorescence polarization; details: not stated in the material (methods in supplement)

Substance	Kd (PARP2 (Homo sapiens)) [nM]	Kd (PARP1 (Homo sapiens)) [nM]
19mer	55	
gas5	40	350
p18mer DNA	59	13
tRNALeu	37	159
